Laboratory results: patent US6355481B1, “Hybridoma cell line and monoclonal antibody for huntingtin protein” (Emory University, priority 1999, dated 2002)

Experiments:
PC12 cells = test: Transfection of PC12 cells, immunofluorescence: neurites and perinuclear inclusions; format: cell-based, rat; settings: for transfected cells with neurites: neurites exceeding two body diameters, vector alone 4.7%
Procedure: cDNA constructs and transfection of cells. Cloned HAP1-A and HAP1-B cDNAs were inserted into the expression vector pCIS (Li et al., 1995) carrying the cytomegalovirus promoter. The expression constructs encoding N-terminal human huntingtin (253 amino acids) with 23, 73, or 120 glutamines were obtained in a previous study (Li and Li, 1998). PC12 cells were plated onto two-well chamber slides at a density of 50,000/cm^2 and cultured for 24 h. Two micrograms of plasmid DNA was then added to each well in a 1-ml solution containing Lipofectamine (10 μg/ml), yielding 3-8% transfected cells. Following 18-24 h transfection, the media were replaced with fresh growth media and the cells were grown for another 24 h before immunofluorescent staining. The immunostaining images were captured using a 3CCD camera video system. Neurite length was measured as cell body diameters. The average sizes (μm) of perinuclcar huntingtin inclusions were obtained by measuring the diameters of inclusions in 58-112 cells transfected with huntingtin alone. The percentage of transfected cells with neurites that exceeded two body diameters was obtained by counting 200-300 transfected cells in three independent experiments. For double transfection, equal amounts (2 μg for each) of HAP1-A and huntingtin cDNAs were transfected into PC12 cells in each well of six-well dishes. The transfected cells were immunostained with the rabbit polyclonal antibody for HAP1-A and mouse monoclonal antibody for huntingtin.

parental PC12 cells = test: Neurite outgrowth assay, parental PC12 cells; format: cell-based, rat; settings: control/parental PC12 cells; IL-6 20 ng/ml, CNTF 20 ng/ml, EGF 10 ng/ml, bFGF 20 ng/ml
Procedure: To evaluate neurite outgrowth, we plated the cells at low density (2×10^4 Cells/cm^2) onto six-well plates. Cell cultures were treated with NGF (100 ng/ml) for 48 hr or with staurosporine (50-100 nM) and EGF (10 ng/ml) for 16 hr and were fixed with 4% paraformaldehyde in PBS for 15 min. After several washes with PBS, cells with neurites exceeding the cell diameter were counted using an inverted microscope (Olympus Optical CK2, Tokyo, Japan). At the same time, five to seven images (10×) were captured by a Pixera camera, and the percentage of cells with neurites was confirmed by analyzing these images. On average, 500-800 cells were counted for each group.

B1: HAP1-A: huntingtin-associated protein isoform expressed from cloned cDNA in pCIS vector transfected into PC12 cells (protein)
chain: MRPKDQVQSSAGDGTGSGDPATGTPTTQPAADPAPEPSAEPKPAPAQGTGSGQKSGSRTKTGGSFCRSRIRGDSDAPWTRYIFQGPYGPRATGLGTGRAEGIWKTPAAYIGRRPGVSGPERAAFIRELQEALCPNPLPRKKITEDDIKVMLYLLEEKERDLNTAARIGQSLVKQNSVLMEENNKLETMLGSAREEILHLRKQVNLRDDLLQLYSDSDDDEEDEEDEEEEEGEEEEREGQRDQDQQHDHPYGAPKPPPKAETLHHCPQLEALKQKLKLLEEENDHLREEASHLDNLEDKEQMLILECVEQFSEASQQMAELSEVLVLRLEGYERQQKEITQLQAEITKLQQRCQSYGAQTEKLQQQLASEKGVHPESLRAGSHMQDYGSRPRERQEDGKSHRQRSSMPAGSVTHYGYSVPLDALPSFPETLAEELRTSLRKFITDPAYFMERCDTRCREERKKEQGTMPPPPVQDLKPPEDFEAPEELVPEEELGAIEEVGTAEDGPAEETEQASEETEAWEEVEPEVDEATRMNVVVSALEASGLGPSHLDMKYVLQQLSNWQDAHSKRQQKQKVVPKGECSRRGHPPASGTSYRSSTL
length of the neurites (PC12 cells; single transfection): 3.8 body diameters | transfected cells with neurites (PC12 cells; single transfection): 29.4%

B2: HD-23Q: N-terminal region of human huntingtin (amino acids 1-253) with 23 glutamines, expression construct (protein)
chain: MATLEKLMKAFESLKSFQQQQQQQQQQQQQQQQQQQQQPPPPPPPPPPPQLPQPPPQAQPLLPQPQPPPPPPPPPPGPAVAEEPLHRPKKELSATKKDRVNHCLTICENIVAQSVRNSPEFQKLLGIAMELFLLCSDDAESDVRMVADECLNKVIKALMDSNLPRLQLELYKEIKKNGAPRSLRAALWRFAELAHLVRPQKCRPYLVNLLPCLTRTSKRPEESVQETLAAAVPKIMASFGNFANDNEIKVLLK
cells with elongated neurites (PC12 cells; double transfection with HAP1-A, HAP1-A alone 29.4%): 24.6% | transfected cells with neurites (PC12 cells; single transfection): 5.1%

B3: CNTF: ciliary neurotrophic factor (protein, UniProt P26441 1-200, looked up)
Ciliary neurotrophic factor: MAFTEHSPLTPHRRDLCSRSIWLARKIRSDLTALTESYVKHQGLNKNINLDSADGMPVASTDQWSELTEAERLQENLQAYRTFHVLLARLLEDQQVHFTPTEGDFHQAIHTLLLQVAAFAYQIEELMILLEYKIPRNEADGMPINVGDGGLFEKKLWGLKVLQELSQWTVRSIHDLRFISSHQTGIPARGSHYIANNKKM
neurite outgrowth promoted by growth factor (parental PC12 cells): did not promote neurite outgrowth
